Assay: soluble on expression in E. coli; label from the status in PepcDB or PDB records

| Sequence | soluble on expression in E. coli |
| --- | --- |
| MGSDKIHHHHHHMRTVYAIVVNYNNFDDTAECIDSLLNQTYPCRVVVVDNGSEREVIEKLRRKYPQVEMLELGENRGYAGGCNAGIRAVIDKADYVLISNNDVVFERDAVERMVSEMEEDETIAACQPVVKYYGDERIWSAGTRIFLGYPVLHLKNKMVEVEISFDSPFGLVGCAMLIRSSALKDVGFFDEELFMMHEETEWCIRARKKGYRLAVCKAVVRHKVSASLGLFSPHYLYYTARNWLIVARRAGKAMFFYALITEPLRVLYYLVRLKRKGDIIQYLKGVVHGILSRKGRRC | not soluble |
| MDISTNKANYKPAVSQAFDGQETQDGTNILILGSDQRVTQGSTDARTDTIMVVNVGNHAKKIKMVSFMRDTLINIPGYSYNDNSYDLKLNSAFNLGEQEDHHGAEYVRRALKHNFDIDIKYYVMVDFETFAEAIDTLFPNGVKIDAKFATVGGVAVDSVEVPDDLRMKNGVVPNQTIEVGEQRMDGRTLLNYARFRKDDEGDFGRTVRQQQVMSAVMSQIKDPTKLFTGSAAIGKIYALTSTNVSFPFVVKNGVSVLGSGKNGVEHVTIPENGDWVDEYDMYGGQALYIDFDKYQKTLAKLGLRLEHHHHHH | soluble |
| MYAMKEEDCLQTFHNLQDYQDQFHLHHHPQILPWSSTSLPSFDPLHFPSNPTRYSDPVHYFNRRASSSSSSFDYNDGFVSPPPSMDHPQNHLRILSEALGPIMRRGSSFGFDGEIMGKLSAQEVMDAKALAASKSHSEAERRRRERINTHLAKLRSILPNTTKTDKASLLAEVIQHMKELKRQTSQITDTYQVPTECDDLTVDSSYNDEEGNLVIRASFCCQDRTDLMHDVINALKSLRLRTLKAEIATVGGRVKNILFLSREYDDEEDHDSYRRNFDGDDVEDYDEERMMNNRVSSIEEALKAVIEKCVHNNDESNDNNNLEKSSSGGIKRQRTSKMVNRCYN | soluble |
| MGSDKIHHHHHHVQQSQIMEDKIISAVRTFASSINSGGKVVADMSELIEVTSQLPLSSFDYWERFIRSEFSTALRESNSPKWKVWSKPKELVTWLDLISWDGYKREKALRALSGAAPNTFFFSLAVRRLNDWVPQVRKAAREKLPEIAKSTVPECVVDALCVALSNWNSWGRIEDADKEVLLKILCEKEIAKSLRSKLIFSASGPMPSLFSQLGRTPILDGQIEEIAKSAIQPSVRAKAYRSLFEGRVIWIEGRKWVWTDIRYCEGRLKPIVGERKLEIETPLIDLLKRSSEDRSSIVRRVSAEILIRELGNLGVKAKEFAERFALDSSQAVSERGDFALKKLDEAERANAS | not soluble |
| MAHHHHHHMLRRVSLSALVQRVAAGAVIATAGRTIVVFSQQHHILESNQRARNSPSNVWIEDWEADRLGMKPEPGALPTQLVLDKQLELFNFDQLLSPPEVMEAPKHSSYSSRKVYGERLQFELNDRAQRHSYQSKWWITRGQAYKENLQFKANARSSILLTKSQIKLFHSSQLSGGEALQQYPVSGGSRRVYSKKGEAFQLLQDHIKSNDFNSGLYFTRRQMEFFKLAPLPDQVPVVQEAATGDRHLIYNVDQLEDPHLALKTLQRAPVNVPTFLLSGEPIMSENTRKFPKTFRSNYWLTGRDAELYQWPIKESERRRGVPFSTGTSAPVQYELFNVEQLSNPDEAFARAGLLIQ | soluble |
| MAHHHHHHMSTSYSVTTYMTTTYVNCEDVSGSDSEYSEYDLVNEQMQDFLLDSEDTSDGDADVEDILGFGAVFMGGLMPTRSMDAHQACAWRRTTKPNRRRIAKKSESCSSLSNAARLTASSSTTMLSDLDTVVREAVVTGGAAQRRGTRKQRRAMASGERRWLVPPLSAVSVESTDGGNDGRRQLPWFTVVFDLDETLVGARYGPIHLRPHVGELLRSLHRLPVEIIVWTAGTAHYVNPILHAIGQACGRRQWFHHIISRHKRWYRDTNVSVKDLRQLGRPLDRLVMVENNPISALPQPSLCVLLEDYLQPNAADESLLVLKGLLERLALQYERAARTSSATGTCEQASEEECPAQRHTRSPRNTLRDATATRTTALPSLELLVRDDAALQLVEFRMEDILKEDGVPMLQQAEMRELVGGADTLRCLCLCYTPPLLPSSTAVAPQGTAALMSCVSMAMRSYGSVNPLRPL | not soluble |
| MAHHHHHHMLTSTAYGMELQARAIAPFYHSSNNSSSTHRFVAGTACFAGGNVIRLLTFQEESQLLECTATWSHEEEIFGLWSSPSVAGPSLLAVGASSYCRIFRVSDDVSGELEPVVNFNAAAAQVLWDLEGLQNEVKLISEDSLRIYSLTEGKMGEEIGRFRVDGCAELRCAALDPHHSSVCLAAGEGIGIAVIDTRRKGPIVMPNTTTLHGLGMIQSIDFSNAREGLFMTAGTDGVIMWHDFRMDGEKSVVERRGYLDAHDHCVQRSLFNPFHDELLISCGSDHTLKLWDTSKKGADGECAVCVSKLSDFAESVVACCWSNSNPWVFAGLSYNGRVLVDSVPEECKMQFIGKEG | not soluble |
| MKMFNIASEDDIKKGLASDVYFERSISTLTETCKDHRVAMEATVSGPLDTWINFSGLDEVLKLLEGIDVDVFAIPEGTILYPRDSNGIPVPFIRIEGNYCDFGMYETSILGMICQASGISTKSSKVRIAAGDCPFFSFGIRRMHPAVSPMIDRSAFIGGADGVSGILGAKLIGEEPIGTMPHALSIILGDDEAWRLTLKNTKNGQKSVILIDTYMDEKFAAIKVAEEFEHVDYIRLDTPSSRRGNFEALVREVKWELALRGRSDIKIMVSGGLDENTVAKLREAGAQAFGVGTSISSAKPFDFALDIVSIDDKPKTKRGKLSGKKSVLRCEKCRKVEVVPYGVESKPCSCGGVMHNIIVKYMEHGKLLSQYPEPKEIRKRTLSELEYFRSSN | soluble |
| MGHHHHHHSHMTDDKDVLRDVWFGRIPTCFTLYQDEITEREAEPYYLLLPRVSYLTLVTDKVKKHFQKVMRQEDISEIWFEYEGTPLKWHYPIGLLFDLLASSSALPWNITVHFKSFPEKDLLHCPSKDAIEAHFMSCMKEADALKHKSQVINEMQKKDHKQLWMGLQNDRFDQFWAINRKLMEYPAEENGFRYIPFRIYQTTTERPFIQKLFRPVAADGQLHTLGDLLKEVCPSAIDPEDGEKKNQVMIHGIEPMLETPLQWLSEHLSYPDNFLHISIIPQPTD | not soluble |
| MSLKIRSLHTDALKKLAVKCEDLFMAGQKDQLRFGVDSWSDFRLTSDKPCCEAGDAVYYTASYAKDPLNNYAVKICKSKAKESQQYYHSLAVRQSLAVHFNIQQDCGHFLAEVPNRLLPWEDPDDPEKDEDDMEETEEDAKGETDGKNPKPCSEAASSQKENQGVMSKKQRSHVVVITREVPCLTVADFVRDSLAQHGKSPDLYERQVCLLLLQLCSGLEHLKPYHVTHCDLRLENLLLVHYQPGGTAQGFGPAEPSPTSSYPTRLIVSNFSQAKQKSHLVDPEILRDQSRLAPEIITATQYKKCDEFQTGILIYEMLHLPNPFDENPELKEREYTRADLPRIPFRSPYSRGLQQLASCLLNPNPSERILISDAKGILQCLLWGPREDLFQTFTACPSLVQRNTLLQNWLDIKRTLLMIKFAEKSLDREGGISLEDWLCAQYLAFAEGHHHHHH | not soluble |
| AHHHHHHGSDCGKDYCVKDLSLAEEGWKKIDWVSRFMPVLQYIKREFEEKKPFKGVRIAATLHLEMKTAFLLLTLKAGGAEVSAAASNPLSTQDDVVAALAKAGVKVYAIRGESREQYYEFMHKALDIRPNIIIDDGADMISLVHKERQEMLDEIWGGSEETTTGVIRLRAMEKAGILKFPVIAVNDSYMKYLFDNRYGTGQSTWDGIMRATNLLIAGKNVVVVGYGWCGRGIAMRARGLGATVIVVEVDPIKALEARMDGFLVMDMKEAAKIGDIFVTATGNIKCIRREHFELMKDGAIMANAGHFDVEIWKPDLEKLAVEINNPRPNVTEYKLKDGRRLYLLADGRLVNLVAADGHPAEIMDMSFALQAKAAEYIKDNHERLEPKVYILPREIDEMVARIKLESMGIKIEELTEEQKKYLESWEHGT | soluble |
| MYTIAALYHFTRFADPADLKPALLDLCLAQGVKGTLLLAKEGINGTIAGPRAGIDAVLAHIRALPGCSDLEWKEATSDHPPFGKMKVRLKQEIVTMGQPDVDPRARVGHYVEPEDWNDLIRSDDVVLIDTRNDYEVAIGTFEGAIDPMTESFRDFPAWWEANKERFHNKRVAMFCTGGIRCEKSTNYLLGQGVEDVYHLKGGILRYLEEVPAENSTWQGECFVFDNRVSVGHGLVEGPHELCHGCRRPILPEDRNRPEYEHGVSCHLCIDETSEADKMRFRERQKQIALARARGEDHLATHLEHHHHHH | soluble |
| MSLQGQIDIPLDIVGRWQADQSAYELAKTYYWAKVAHLAEHNDQLAQPTYEGAHLADISEINNAPATARRMLVVSSDLFRAQQTAHAFADLMGLDVELDPRLRERSFGEWEGMTREEICEHYADDYHSWRAHTGGETKHGVESRIHTGRRGAEAVRDIVAKHHDETMPTTLLLVGHGSWIVATVAVLLDMDPDDLNNVGAMRNAFWTRMTPHTDPRNADRPTWKLEEFNQGPAIASFADWENGPESLRAPGMPLWKPIIQEGHHHHHH | not soluble |
| MVSIIIPIYNVQDYINDCLYSVYTQTYSEIEVILVNDCTPDNSMLIAHSNIEKLKKRFNVKIIDHKSNKGLSAARNSGVKEATGEWVYFLDSDDEITPDCIECFVRLAERYLSVDFIVGGIRVIGRNISYRLTTSEYVIGNDNILKCYISGMWYEMAWNKLIRKEYFVSNNLWFKEGLLHEDQLFSYQLATTALTMATVNKPTYIYKMRMSGAITSSNGRKNFDSFICILEYMVYSVMQKYSTSSVTLEYAQIIRFSYSILLSLYGKHNLTEMEVVNYELKVDRICRIVTFYKCKLPVPIQIKLTIIKLPQTMRKVLLKWHNKKIQKKLEHHHHHH | soluble |
| SNAMKLIAIDLDGTLLNSKHQVSLENENALRQAQRDGIEVVVSTGRAHFDVMSIFEPLGIKTWVISANGAVIHDPEGRLYHHETIDKKRAYDILSWLESENYYYEVFTGSAIYTPQNGRELLDVELDRFRSANPEADLSVLKQAAEVQYSQSGFAYINSFQELFEADEPIDFYNILGFSFFKEKLEAGWKRYEHAEDLTLVSSAEHNFELSSRKASKGQALKRLAKQLNIPLEETAAVGDSLNDKSMLEAAGKGVAMGNAREDIKSIADAVTLTNDEHGVAHMMKHLL | soluble |
| MSLKSELPPVQVALDLVDLPRAIEIAKEAVAGGVTWVEAGTPLIKSEGMNAIRELRKNFPTLTIVADMKTMDAGSTEVEMAAKAGANVILILGVGPDSMIIDAVKAGKKYGVLVGTDLIATEDPIKRAVELEEMGVDIINIHVGLDQQVLNVDPVELVKRVSENCKKAKIAAAGGLNSETAVKAYEAGADIIIAGGTLYKSADPEQTARDIIKGLKTGKPVKTDKFKKFNESELVSAFNVVSTSNISDAMHRTGEMKGLKPVWNSEKPLKFAGPAVTVRTYSGDWSKPVSAIDDCEAGNVLVIDNCSSEIACWGGLATLSCETKGVVAIVIDGAVRDVEEILKIGIPVFARSITPTAGEPKGFGEINAVIDCAGRTVEPGDWIVGDENGIIVVPKNEAMEIANRAIDVKEREDRVKEEITRGTTLAKTIRLKDWELKEGHHHHHH | soluble |
| MSGGIDSTATCLMLQEQGYEIVGVTMRVWGDEPQDARELAARMGIEHYVADERIPFKETIVKNFIDEYKQGRTPNPCVMCNPLFKFRVLAEWADKLDCAYIATGHYSRLEERSGHIYIVAGDDDKKDQSYFLWRLGQDILKRCIFPLGDYTKIKVREYLAEKGYEAKSKEGESMEVCFIQGDYRDFLREQCPELDTEIGPGWFVNSEGVKLGQHKGAPYYTIGQRKGLEIALGKPAYVLKINPQKNTVMLGDAEQLQTEYMLAEQDRIVDEQELFSCENLAVRIRYRSRPIPCRVKRLEDGRLLVRFRETASAVAPGQSAVFYDGRRVLGGAFIASQRGIGLVIIENKDKL | not soluble |
| MLIYEGHIDKLIRRGQEKGLDIYNLIRTAVFNPVEHYGLNVGLLREGDPADFIIVDNLKSFNILSTFIDGECVYENGKVLFPLEHHHHHH | not soluble |

— the DeepSol protein solubility set
